Source: FireProtDB (doi:10.1021/bi951726o)

Details: Escherichia coli (strain K12), pH 7.8, Urea, NMR, Potassium phosphate 58 mM, reversible: yes, whole UniProt chain shown

B1: Tryptophan synthase alpha chain wild type, P0A877 (protein)
chain: MERYESLFAQLKERKEGAFVPFVTLGDPGIEQSLKIIDTLIEAGADALELGIPFSDPLADGPTIQNATLRAFAAGVTPAQCFEMLALIRQKHPTIPIGLLMYANLVFNKGIDEFYAQCEKVGVDSVLVADVPVEESAPFRQAALRHNVAPIFICPPNADDDLLRQIASYGRGYTYLLSRAGVTGAENRAALPLNHLVAKLKEYNAAPPLQGFGISAPDQVKAAIDAGAAGAISGSAIVKIIEQHINEPEKMLAALKVFVQPMKAATRS
denaturant midpoint (higher = more stable) (5 °C): 4.8 M | unfolding free energy (5 °C): 4.8 kcal/mol | denaturant midpoint (higher = more stable) (10 °C): 4.6 M | unfolding free energy (10 °C): 5.5 kcal/mol | denaturant midpoint (higher = more stable) (15 °C): 4.7 M | unfolding free energy (15 °C): 6.1 kcal/mol | denaturant midpoint (higher = more stable) (20 °C): 5.4 M | unfolding free energy (20 °C): 7.5 kcal/mol | denaturant midpoint (higher = more stable) (25 °C): 5.9 M | unfolding free energy (25 °C): 8.2 kcal/mol
